What was measured:
Conditions in all cases: protein: commercial; blunt, no nick
[1] = biological target: T1, T4 DNA ligase (UniProt P00970 1-487); assay: competition (nick-ligation inhibition, competitive fit); 1 mM ATP, 10 mM Mg2+; EMSA: 50 mM Tris pH 7.5, 5 mM DTT, 5 mM Mg2+, 1 mM sodium pyrophosphate, 5% glycerol, room temperature (22 C), 20 min; ligation competition: 50 mM Tris-HCl pH 7.5, 1 mM ATP, 10 mM MgCl2, 10 mM DTT, 16 C
T1 sequence: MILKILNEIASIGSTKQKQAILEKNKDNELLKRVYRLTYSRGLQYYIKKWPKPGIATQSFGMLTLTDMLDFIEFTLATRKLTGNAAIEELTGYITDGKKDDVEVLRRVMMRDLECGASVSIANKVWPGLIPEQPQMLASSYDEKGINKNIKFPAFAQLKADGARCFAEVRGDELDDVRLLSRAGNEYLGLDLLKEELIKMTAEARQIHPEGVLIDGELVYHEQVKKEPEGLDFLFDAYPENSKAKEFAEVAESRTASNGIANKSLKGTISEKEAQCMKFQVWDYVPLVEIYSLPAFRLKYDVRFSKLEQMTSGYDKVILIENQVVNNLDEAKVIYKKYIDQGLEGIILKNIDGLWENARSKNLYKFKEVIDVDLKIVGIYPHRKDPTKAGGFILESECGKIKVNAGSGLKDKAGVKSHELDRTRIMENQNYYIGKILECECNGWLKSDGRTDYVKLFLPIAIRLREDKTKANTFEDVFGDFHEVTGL

[2] = biological target: T1, T4 DNA ligase; assay: competition (nick-ligation inhibition); Ki x N sites; per binding site, N=34, assumed 24 bp footprint; derived from the Ki; EMSA: 50 mM Tris pH 7.5, 5 mM DTT, 5 mM Mg2+, 1 mM sodium pyrophosphate, 5% glycerol, room temperature (22 C), 20 min; ligation competition: 50 mM Tris-HCl pH 7.5, 1 mM ATP, 10 mM MgCl2, 10 mM DTT, 16 C
[3] = biological target: T1, T4 DNA ligase; assay: competition (nick-ligation inhibition); Ki x N sites; per binding site, N~100, assumed 24 bp footprint; derived from the Ki; EMSA: 50 mM Tris pH 7.5, 5 mM DTT, 5 mM Mg2+, 1 mM sodium pyrophosphate, 5% glycerol, room temperature (22 C), 20 min; ligation competition: 50 mM Tris-HCl pH 7.5, 1 mM ATP, 10 mM MgCl2, 10 mM DTT, 16 C
[4] = biological target: T1, T4 DNA ligase; assay: competition (nick-ligation inhibition, competitive fit); 20 nM FAM-labeled nicked substrate, 25 pM ligase, 1 mM ATP, 10 mM Mg2+, 16 C; EMSA: 50 mM Tris pH 7.5, 5 mM DTT, 5 mM Mg2+, 1 mM sodium pyrophosphate, 5% glycerol, room temperature (22 C), 20 min; ligation competition: 50 mM Tris-HCl pH 7.5, 1 mM ATP, 10 mM MgCl2, 10 mM DTT, 16 C

B1: I-40-dsDNA (dsDNA)
DNA 1: CACATATGAGAAGGTATTTGCCCGATAATCAATACTCCAG
DNA 2: CTGGAGTATTGATTATCGGGCAAATACCTTCTCATATGTG
- Ki [1]: 0.2 ± 0.03 µM
- Kd [2]: 7 ± 1 µM

B2: I-75-dsDNA (dsDNA)
DNA 1: AGAGAAGATGACTACTGAGTTGTGCGATCCCTGCACTTCAGCTAAGGAAGCTACCAATATTTAGTTTCCGAGTCT
DNA 2: AGACTCGGAAACTAAATATTGGTAGCTTCCTTAGCTGAAGTGCAGGGATCGCACAACTCAGTAGTCATCTTCTCT
- Kd [3]: 10 ± 2 µM
- Ki [4]: 0.1 ± 0.02 µM

From publication PMC4782999, “The Inhibitory Effect of Non-Substrate and Substrate DNA on the Ligation and Self-Adenylylation Reactions Catalyzed by T4 DNA Ligase”
